Test results from the nanobody polyreactivity screen of Harvey et al. (2022).

Assay: yeast display, Sf9 membrane polyspecificity reagent, FACS + sequencing; frameworks hold sequencing errors
In short: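 A nanobody's polyreactivity label depends on the gate it was sorted from. Yeast display cells were stained with 10% biotinylated, detergent-solubilized Sf9 membrane reagent for 1 hour at 4 °C, enriched on streptavidin microbeads and sorted by FACS. The low and high (top ~1%) gates were set on anti-HA fluorescence for expression and streptavidin fluorescence for reagent binding.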
In the case of “QVQLVESGGGLDQAGGSLRLSCAASGSNLVSNDMGWYRQAPGKERELVAAMSWSGGSTYYADSVKGRFTISRDNAKNTVYLHMNSLKPEDTAVYYCAAGFGFLFARQELEFDYWGQGTQVTVSS”, the “polyreactivity (PSR sort gate)” value is reported as “low polyreactivity”.
In the case of “QVQLVESGGGLDQAGGSLRLSCAASGSTFDGYAMGWYRRAPGKERELVAAITSSDGSTYYADSVKGRFTISRDNAKHTVYLQMYSLKPEDTAVYYCAAAPDWKDSLPPDMDYWGQGTQVSVSS”, the “polyreactivity (PSR sort gate)” value is reported as “low polyreactivity”.
For “QVQLVESGGGLDQAGGSLRLSCAASGSTFSRYAMGWYRQPPGKERELVAAISWRGGSTYYADSVKGRFTISRDNAKNTVYLQMNSLKPEDTAVYYCNKAGFWFVVYKRQEYWGQGTQVTVSS”, the “polyreactivity (PSR sort gate)” value was “high polyreactivity”.
With “QVQLVESGGGLDQAGGSLRLSCAASGSTFVYYAMGWYRQAPGKERELVAAITASGGGTYYADSVKGSFTISRDNAKNTVYLQMNSLKPEDTAVYYCAANDYWYSRGDNQFYYRGQGTQVTVSS” the “polyreactivity (PSR sort gate)” value was “low polyreactivity”.
In the case of “QVQLVESGGGLDQAGGSLRLSCAASGSTFYFYAMGWYRQAPGKEMELVAVISSGGRTYYADSVKGRFTISRDNAKNTVYLQMNSLKPEDTAVYYCAASWPSSLTYYYWGQGTQVTVSS”, the “polyreactivity (PSR sort gate)” value is reported as “low polyreactivity”.
For “QVQLVESGGGLDQAGGSLRLSCAASGSTFYSYDMGWYRQAPGKEREMVAAISSGGSTYYADSVKGRFTISRDNAKNTVYLQMNSLKPEDTEVYYCAAKRRATTGYRYDYWGQGTQGTVSS”, the “polyreactivity (PSR sort gate)” value was “high polyreactivity”.
In the case of “QVQLVESGGGLDQAGGSLRLSCAASVRIFEENAMGWSRQAPGKEREFVAVITSSGGGTYYADSVKGRFTISRDKAKNTVYLQMNSLKPEDTAVYYCARADKLHTRGWGRWGSGSYSWGQGTQVTVSS”, the “polyreactivity (PSR sort gate)” value is reported as “low polyreactivity”.
In the case of “QVQLVESGGGLDQAGGSLRLSCAATGGTFTRKAMGWYRQAPGKERELVASITSGDTTNYADSVKGRFTISRDNAKNTVYLQMNSLKPEDTAVYYCATDTPTDRYAAYPHDPYYYWGQGTQVTVSS”, the “polyreactivity (PSR sort gate)” value is reported as “low polyreactivity”.
In the case of “QVQLVESGGGLDQAGGSLRLSCADSGSLSDWNAMVSYRQAAGKEREWVAAINWSGDTTYYADSVKGRFTISRDNAKNTFYLQMNCLNPEDTAVYYCAAELVVDYDWYDYWGQGTQVTVSS”, the “polyreactivity (PSR sort gate)” value is reported as “high polyreactivity”.
With “QVQLVESGGGLDQAGGSLRLSCDASGSSFRKYAMVLYRQAPGKEREFVAAISSSGGRTYYADSVKGRFTISRDNAKYTVYLQMNSLKPEDTSVYYFADDVYSDRYDYWGQGTQVTVSS” the “polyreactivity (PSR sort gate)” value was “high polyreactivity”.
For “QVQLVESGGGLDQAGGSLRLSCPASGNIFTGNAMGWYRQAPGKEREFVAAISSVGGSTYYADSVKGRFTISRDNAKNTVYLQMNSLKPEDTAVYYCAASRVRYSYGYPYYYWGQGTQVTVSS”, the “polyreactivity (PSR sort gate)” value was “high polyreactivity”.
With “QVQLVESGGGLDQAGGSLRLTCAASGSIFVYNAMGWYRQAPGKEREFVAAITWRGGRTYYADSVKGRFTISRDNAKNTVYLQMNSLKPEDTAVYYCAADGGSTLDYYWGQGTQVTVSS” the “polyreactivity (PSR sort gate)” value was “low polyreactivity”.
In the case of “QVQLVESGGGLDQAGGSLRLTCAASGSTFRVYAKGSYSQAPRKERELGAAISRSGGSTTDYADSVKGRFTISRENAKNTVYLQINSLNPEDTAVYFCSDRDYKVQKIYDYWGLGTQVTVSS”, the “polyreactivity (PSR sort gate)” value is reported as “low polyreactivity”.
In the case of “QVQLVESGGGLDQAGGSLSLSCAASGYTYRLYAMGWYRQAPGKERELVAAITWRGGSTYYADSVKGRFTISRDNAKNTVYLQMNSLKPEDTAVYYCAAEFYIGRQGNYWGLGTQVTVSS”, the “polyreactivity (PSR sort gate)” value is reported as “high polyreactivity”.
In the case of “QVQLVESGGGLDQAGVRLRLSCAASGRIVSSYAMGWYRQAPGKERELVAAIRRGGGSTSYADSVKGRFTISRDNAKKTVYLQMNSLKPEDTAVYYCAADSPRGQVHYIGGYWGQGTQVTVSS”, the “polyreactivity (PSR sort gate)” value is reported as “low polyreactivity”.
With “QVQLVESGGGLDQAGVSLRLSCAASGNIFSWNTMGWYRPAPGKERELVAAITFRGTRTFYADSVKGRFTISRDNAKNNVYLHMNSLKPEDTAVYYSAARYYYSYSLGYDYWGQGTQVTLSS” the “polyreactivity (PSR sort gate)” value was “high polyreactivity”.
For “QVQLVESGGGLDQARGSLRLSCAASGFIFQIYAMGWYRQAPGKERELVAAITSRAGSTYYADSVKGRFTISRDNAKNTVYFQMNSLKPEDTAVYFCNKVFFLPTSRAYEYWGQGTQVTVSS”, the “polyreactivity (PSR sort gate)” value was “high polyreactivity”.
With “QVQLVESGGGLDQARGSLRLSCAASGSIFGENAMGWYRQAPGKERELVAAISTSGGTTYYADSVKGRFTISRDNAKNTVYLQMNSLKPEDTAVYYCAKPYTSFSPYDYWGQGTQVTVSS” the “polyreactivity (PSR sort gate)” value was “low polyreactivity”.
In the case of “QVQLVESGGGLDQARGSLRLSCAASGSITTFYAMGWSRQAHGKERELVAAISSSGGSTYYADSVKGRFTISRDNAKNTVYLQMNSLKPEDTAVYSCAAKGYPSRYSYGWYNYWGQGTQVTLSS”, the “polyreactivity (PSR sort gate)” value is reported as “high polyreactivity”.
In the case of “QVQLVESGGGLDQARGSLRLSCAASGSTFKSYVMGWYRQAPGKVRELVAAISQSGGNTNYADSVKGRFTISRDNAKNTVYLQMNSLKPEDTAVDYCAADVLGTTTTVGGFNYWGQGTQVTVSS”, the “polyreactivity (PSR sort gate)” value is reported as “low polyreactivity”.
With “QVQLVESGGGLDQAVGSLRLSCAASGSIFKPYAMGWYRQAPGKERELVAGITAGGGSTYYADSVKGRFTISRDNAKNTVYLQMNSLKPEDTAVYYCSVDPYNIFTDDIVENDYWGQGTQVTVSS” the “polyreactivity (PSR sort gate)” value was “low polyreactivity”.
For “QVQLVESGGGLDQEGGSLRLSSAASGRTFRGYAMGWYIQAPGKEREIVDAISRGTVGTYYADSVKGRFTISRDNAKNTVYLQMISLKPEDTAVYYCAADRFANFSNLRLGYYSWGQGTQLTVSS”, the “polyreactivity (PSR sort gate)” value was “low polyreactivity”.
For “QVQLVESGGGLEQAGGSLRLSCAASGRTLPIYAMGWYIQAPGKERELVAAISWSGASTYADSVKGRFTISRDNAKNTVYLQMTSLKPEETAVYYCAAYYVYWYSSYGYGYWGQGTQVTVSS”, the “polyreactivity (PSR sort gate)” value was “low polyreactivity”.
In the case of “QVQLVESGGGLFHAGGSLRLSCAASGSTFTDDDMGWYRQAPGKERELVAAMSWSGGSTYYADSVKGRFTISRDNAKNTVYLQMNSLKPDDTADYYCAFRYHGYDYWGQGTQVTVSS”, the “polyreactivity (PSR sort gate)” value is reported as “high polyreactivity”.
In the case of “QVQLVESGGGLFKAGGSLRLSCAASGSTLPGYAMGWYRQAPGKERELVAAITGSGGRTYYADSVKGRFTISRDNAKYTVYLQMNSLKPEDTAVYYCGRGQRVYRSQGDYWGQGSQVTVSS”, the “polyreactivity (PSR sort gate)” value is reported as “high polyreactivity”.
With “QVQLVESGGGLFQAGGNLRLSCAASGRTFYPNAMGWYRQAPGKERELVAGIRSSGDSTYYADSVKVRFTISRDNAKNTVYFQMNSLKPEDTAVYYCNRDLTPSYDYWGQGSQVTVSS” the “polyreactivity (PSR sort gate)” value was “low polyreactivity”.
In the case of “QVQLVESGGGLFQAGGRLRLSCAASGITFVYYAMGWSRQAPGKERELVAAISWGGGSTYYADSVKGRFTISSDNAKNTVYLQMNSLKPEDTAVYYCAADAYVNATPEVSAMGYWGQGTQVTVSS”, the “polyreactivity (PSR sort gate)” value is reported as “low polyreactivity”.
With “QVQLVESGGGLFQAGGSHRLSCAASGSTFTPYAMGWYRQAPGKEREFVARISWTGGSTYYADSVKGRFTISRDNAKNTVYLQMNSLKPEDTAVYYCAARYGYSYYRRDYWGQGTQVTVSS” the “polyreactivity (PSR sort gate)” value was “high polyreactivity”.
In the case of “QVQLVESGGGLFQAGGSILLSCPASGSTFDNYSMGWYRQAPGKERELVAGISWSGGSTFYADSVKGRFTISRDNAKYTVYLQMNSLKTEDTAVYYCAARIRYLDVRDNDNYYWGQGTQVTVSS”, the “polyreactivity (PSR sort gate)” value is reported as “low polyreactivity”.
For “QVQLVESGGGLFQAGGSLRISCAASGLTFKINAMGWYRQAPGKERELVAAISSGTSTNYADSVKGRFTISRDNAKNTVYLQMNSLKPEDTAVYYCAARGFWGVAYRYYYWGQGTQVTVSS”, the “polyreactivity (PSR sort gate)” value was “high polyreactivity”.
For “QVQLVESGGGLFQAGGSLRISCAASGSTFLVNAMGWYRQAPGKEREFVAAITWTGGSTYYADSVKGRFTISRDNAKNSVYLQMNRLKPEDTAVYYCNTDWTYYGDQYRRGGYWGQGTQVTVSS”, the “polyreactivity (PSR sort gate)” value was “low polyreactivity”.
In the case of “QVQLVESGGGLFQAGGSLRISCAASGTFVTYMGWYRQAPGKERELVAAIRNGGSTNYADSVKGRFTISRDNAKNTVYLQMNSLKPDDTAVYYCAARVTYSRGYRGGSRNKYDYWGQGTQVTLSS”, the “polyreactivity (PSR sort gate)” value is reported as “low polyreactivity”.
With “QVQLVESGGGLFQAGGSLRITCAASGITFSYNAMGWYRQAPGKVRELVAGITWSGGSTYYADSVTGRFTISRDNAKNTVYLQMYSVKREDTAVYYCAASRSFPGYGLYYYWGQGTQVTVSS” the “polyreactivity (PSR sort gate)” value was “low polyreactivity”.
With “QVQLVESGGGLFQAGGSLRLICAASGFIFGGSDMGWYRQAPGKERELVAAISRSGGSTYYADYVKGRFTISRDNAKNTVYLQMNSMKREDTAVYYCNSVPRRQGFNYLGQGTQVTVSS” the “polyreactivity (PSR sort gate)” value was “high polyreactivity”.
In the case of “QVQLVESGGGLFQAGGSLRLRCAASGFIFGVNAMGWYRQAPGKERELVAAITSTGGRTYYADSVKGRFTISRDNAKNTVYLQMNSLKPVDTAVYFCARYQTGGYGYWGQGTQVTVSS”, the “polyreactivity (PSR sort gate)” value is reported as “high polyreactivity”.
For “QVQLVESGGGLFQAGGSLRLSCAASGFIFGQNAMGWYRQAPGKERELVAAIDWTGGRTYYADSVKGRFTISRDNAKNTVYLQMNSLKPEDTAVYYCAADGVWYADSPYSIHYGYWGQGTQVTVSS”, the “polyreactivity (PSR sort gate)” value was “low polyreactivity”.
With “QVQLVESGGGLFQAGGSLRLSCAASGFTCSGYAMGWYRPAPGKERELVAGISASAGSTYADSVKGRFTISRDNAKNTVYLQMNSLKPEDTAVYYCAADLSFKAAIWFNEYGYWGQGTQVTVSS” the “polyreactivity (PSR sort gate)” value was “low polyreactivity”.
For “QVQLVESGGGLFQAGGSLRLSCAASGFTIEWYAMGWYRQAPGKERELVATITSSGDSTYYADSEKGRFTISRDNAKNTVYFQMYSLKPEDTAVYYCNVDNSVYDFSEYVYWGQVTQVTVSS”, the “polyreactivity (PSR sort gate)” value was “high polyreactivity”.
For “QVQLVESGGGLFQAGGSLRLSCAASGFTSLWYGIGWYRPAPGKERELVAAITSDSSTYYADSVKGRFTISRDNAKNTVYLQMYSLKPQDTAVYSCAKYFVYVGYGRYAFWGQGTQVTVSS”, the “polyreactivity (PSR sort gate)” value was “low polyreactivity”.
In the case of “QVQLVESGGGLFQAGGSLRLSCAASGIIFPRYMGWYRQAPGKERELVAAIRWSSDDTNYADSVKGRFTISRDNAKNTVYLQMNSLKPEDTAVYYCAADSYYDRTIQFEFSARTYEYWGQGTQVTVSS”, the “polyreactivity (PSR sort gate)” value is reported as “low polyreactivity”.
In the case of “QVQLVESGGGLFQAGGSLRLSCAASGIIFYVNDMGWYRQAPGKERELVADISGGTSTNYADSVKGRFTISRDNAKNTVYLQMNSLKPEDTAVYYCATAFIVQFPGSDYWGQGTQVTVSS”, the “polyreactivity (PSR sort gate)” value is reported as “low polyreactivity”.
In the case of “QVQLVESGGGLFQAGGSLRLSCAASGRIFAYYTMGWYIQAPGKERELVAAITKRGGSTYYADSVKGRFTISRDNAKNTFYLQMNSLKPEDTAVYYCAADPNRYRYRSPHDYWGQGTQVTVSS”, the “polyreactivity (PSR sort gate)” value is reported as “high polyreactivity”.
With “QVQLVESGGGLFQAGGSLRLSCAASGRIFGNNTMGWYRQAPGKERELVAAINSGGRTYYADSVKGRFTISRDNAKYTVYLQMNSLKTEDTAVYYCATTTYKRFYRAPTSKYDYWGQGTLVTVSS” the “polyreactivity (PSR sort gate)” value was “high polyreactivity”.
